From US20120329854A1, “Methods and Compounds for the Diagnosis and Treatment for Cancer” (UNIVERSITÄTSKLINIKUM FREIBURG, priority 2009, published 2012) come the findings set out here.

One data set has as its system LNCaP cells. In words: Cell proliferation assay (BrdU ELISA), R1881-induced proliferation. As to conditions: LNCaP cells infected with lentivirus, 1×10^−9 M R1881, versus miRNA control (FIG. 4e). The format is cell-based, human. The procedure:
Experiments were performed as described^2. pLenti6-miRNA-control and pLenti6-miRNA-PKCβI were used to produce recombinant lentiviruses to infect LNCaP cells as described^15. The infected cells were cultured for 72 hours in medium containing 10% double-stripped FCS. 1×10^4 cells were plated in a 96-well plate in the presence or absence of 1×10^−9 M R1881. The cell proliferation Elisa BrdU Colorimetric Assay (Roche) was performed according to the manufacturer's instructions. […] The experiments were performed in hexaplicate.
On the technique in general: Incorporation of labelled thymidine or its analogues reports DNA synthesis.

A further data set relates to KLK2 and FKBP5 genes. In words: Quantitative RT-PCR of androgen-regulated genes in LNCaP cells. The format is cell-based, human. As to conditions: miRNA-mediated knockdown (FIG. 3j). The procedure: Quantitative RT-PCR and statistical analysis were performed as described. The primers for KLK2 and FKBP5 were described previously^6, 11.

B1: 5′-TGCTGTTACGTAGGGATCTGACAGGCGTTTTGGCCACTGACTGACGCCTGTCATCCCTACGTAA-3′ (nucleic acid)
DNA 1: TGCTGTTACGTAGGGATCTGACAGGCGTTTTGGCCACTGACTGACGCCTGTCATCCCTACGTAA
DNA 2: CCTGTTACGTAGGGATGACAGGCGTCAGTCAGTGGCCAAAACGCCTGTCAGATCCCTACGTAAC
modifications: expressed or natural sequence
As for B1, the R1881-induced cell proliferation entry with LNCaP cells is “severely reduces”. The “expression of the androgen-regulated KLK2 and FKBP5 genes” value in the data set on KLK2 and FKBP5 genes was “reduces expression”.
